Test results published in PMC7321340, “Sorbitol as a Polar Pharmacological Modifier to Enhance the Hydrophilicity of ^99mTc-Tricarbonyl-Based Radiopharmaceuticals” (Molecules, 2020).
Like-named read-outs stand apart in the source and are kept apart here.

Key:
[1] = Biodistribution in nude mice bearing PC-3 tumor xenografts; details: female, athymic nude (Fox-1^nu), mouse, in vivo, iv, 10 pmol, total radioactivity
Experimental: Biodistribution studies were performed in nude mice bearing PC-3 tumor xenografts at 1 h post-injection (p.i.) of the radiotracers (n = 6; Table 3, Figure 4).
All animals were treated according to the European Union rules on animal care. Animal experiments were approved by the Austrian Ministry of Sciences (BMBWF-66.009/0122-V/3b/2019). Approximately 5 × 10^6 PC-3 cells in 100 µL serum-free medium were subcutaneously injected into flanks of 8-week-old, female, athymic mice (Fox-1^nu, Charles River Laboratories). Xenografts were allowed to grow for 16 days (approx. size: 250 mm^3) and mice were intravenously injected via the tail vein with 0.1 µM radiolabeled peptide (10 pmol, ~42 kBq, 100 µL physiological saline) alone (baseline experiments) or co-injected with 2000-fold excess BBN(1–14) (20 nmol; blocking experiments). One hour p.i. of the radiotracers, mice were sacrificed and organs, tumor and blood were removed. Radioactivity in organs and tissues was quantified using a γ-counter (2480 Wizard^2, PerkinElmer). Organs and tissues were wet-weighted and percentage of injected dose per gram was calculated (% ID/g). Statistical analysis (2-way ANOVA) was performed by GraphPad Prism.

physchem = format: physicochemical; details: pH 7.4
Experimental: For logD analysis, the octanol/PBS partition coefficients of the ^99mTc-tricarbonyl labeled BBN conjugates were determined at pH 7.4 utilizing the “shake-flask method” [25, 26]. The logD value for the reference compound [^99mTc][Tc(CO)3(BBN-13)] was −0.54 ± 0.04 while for the glycated compound [^99mTc][Tc(CO)3(12)] it was −1.26 ± 0.16 (Table 2). As expected, these measurements confirmed the increased hydrophilicity of the glycated ^99mTc-labeled BBN conjugate due to the introduction of the sorbitol moiety.
The lipophilicities (LogD) of [^99mTc][Tc(CO)3(L)] (L = 12, 13) were determined by their partition coefficient between n-octanol and PBS (pH 7.4) utilizing the “shake-flask method” [25, 26]. PBS and n-octanol were shaken overnight to saturate each phase. After separation of the layers by gravity, equal volumes (500 µL) of each layer were taken and transferred into an Eppendorf tube and 5 µL (~45 kBq) of the radiolabeled peptide solution were added to the PBS/n-octanol mixture. […] Aliquots of 300 µL were removed from the octanol and PBS phases and the radioactivity was measured in the γ-counter (n = 3 in triplicates). The lipophilicity was calculated as the log value of the average ratio between the radioactivity in the organic fraction (octanol) and the PBS fraction from the samples.

[2] = target: T1, Gastrin-releasing peptide receptor (GRPR) on PC-3 cells (Homo sapiens, UniProt P30550); experiment: Receptor saturation assay; format: binding; details: 4 °C, 2 h, nonlinear regression, mean ± SEM, n = 2–3 in triplicate
T1 construct: using GRPR expressing PC-3 cells; host or cells: PC-3 human prostate adenocarcinoma cells (intact, in 6-well plates, 4 °C)
Experimental: The receptor affinity (Kd) and maximum receptor occupancy (Bmax) were determined by receptor saturation assays using increasing amounts of the radiolabeled peptides (Figure 3). […] Differences in specific molar activities (MBq/mol) could account for this observation and cannot be entirely excluded even though both ^99mTc-radiopeptides were prepared under identical conditions. Because this study aims at the investigation of differences in the pharmacokinetics of the radiopeptides (e.g., rate and route of excretion) rather than in tumor uptake, we continued with the evaluation of both compounds in vivo.
Cell culture reagents were purchased from Thermo Fisher Scientific (Vienna, Austria) or Sigma-Aldrich (Vienna, Austria). Human prostate adenocarcinoma cells (PC-3) were purchased from ATCC and cultivated in RPMI-1640 medium supplemented with 10% heat-inactivated fetal bovine serum (FBS), 2 mM L-glutamine, 100 units/mL penicillin and 100 μg/mL streptomycin under humidified atmosphere (37 °C, 5% CO2) until minimum 80% at confluence. […]
Receptor binding assays were performed as previously published. […] Non-specific receptor binding was determined using an excess of natural bombesin (2.5 μM/well for concentrations of the radiopeptide <10 nM, and 10 μM/well for higher concentrations). […] The obtained fractions were measured in a γ-counter.

[3] = system: GRPR expressing PC-3 cells; experiment: Cell binding and internalization studies; format: cell-based, human
Experimental: Receptor binding and cell internalization properties of the ^99mTc(CO)3-labeled BBN derivatives were investigated with GRPR expressing PC-3 cells (n = 2–3 in triplicate). Despite the slightly slower uptake kinetics of [^99mTc][Tc(CO)3(12)], both radiolabeled compounds [^99mTc][Tc(CO)3(L)] […] The membrane bound fraction was less than 5% AD/10^6 cells for both compounds. The receptor-specific cell uptake was verified by incubating the cells with the radiopeptides in the presence of 1000-fold excess of natural bombesin as blocking agent.
Cell culture reagents were purchased from Thermo Fisher Scientific (Vienna, Austria) or Sigma-Aldrich (Vienna, Austria). […]
Internalization studies were performed as previously published. […] Non-specific receptor binding was determined by incubating the cells with the radiotracers and 1000-fold excess of natural bombesin (250 pmol; 100 μL per well) as the receptor blocking agent. […] The receptor-bound radioactivity was obtained by incubating the cells twice for 5 min with an ice-cold acidic glycine solution (100 mM NaCl, 50 mM glycine, pH 2.8; 1 mL) on ice followed by removal of the supernatant. […] All fractions were measured in a γ-counter and calculated as percentage of the applied dose (n = 2–3 in triplicate).

T1 sequence (P30550 whole entry): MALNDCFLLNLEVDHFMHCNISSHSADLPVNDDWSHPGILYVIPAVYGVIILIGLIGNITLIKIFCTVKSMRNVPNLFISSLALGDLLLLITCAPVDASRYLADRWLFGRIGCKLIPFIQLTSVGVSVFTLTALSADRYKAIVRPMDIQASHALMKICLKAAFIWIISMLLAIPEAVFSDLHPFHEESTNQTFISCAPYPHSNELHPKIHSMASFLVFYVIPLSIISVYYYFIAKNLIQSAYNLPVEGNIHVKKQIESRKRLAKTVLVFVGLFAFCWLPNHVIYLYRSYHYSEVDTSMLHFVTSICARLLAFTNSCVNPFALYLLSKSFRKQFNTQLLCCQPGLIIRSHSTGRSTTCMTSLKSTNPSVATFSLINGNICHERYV

## CCCC[C@H](NC(=O)[C@H](CC(C)C)NC(=O)[C@H](Cc1c[nH]cn1)NC(=O)CNC(=O)[C@@H](NC(=O)[C@H](C)NC(=O)[C@H](Cc1c[nH]c2ccccc12)NC(=O)[C@H](CCC(N)=O)NC(=O)CCNC(=O)CCNC(=O)CCNC(=O)Cn1cc(CN[C@@H](CCCCNC(=O)CCCOC[C@H](O)[C@@H](O)[C@H](O)[C@H](O)CO)C(=O)O)nn1)C(C)C)C(N)=O [[^99mTc][Tc(CO)3(12)], metal not drawn]
[1]; 1 h p.i., i.v. 10 pmol, PC-3 xenograft, GRPR-positive, mean ± SD, n = 5–6, read-out: Tumor uptake
  tissue uptake at 1 h: 2.72 ± 0.88 %ID/g
[1]; 1 h p.i., i.v. 10 pmol, mean ± SD, n = 5–6, read-out: Blood uptake
  tissue uptake at 1 h: 1.22 ± 0.4 %ID/g
[1]; 1 h p.i., i.v. 10 pmol, mean ± SD, n = 5–6, read-out: Bone uptake
  tissue uptake at 1 h: 0.44 ± 0.28 %ID/g
[1]; 1 h p.i., i.v. 10 pmol, mean ± SD, n = 5–6, read-out: Brain uptake
  tissue uptake at 1 h: 0.09 ± 0.07 %ID/g
[1]; 1 h p.i., i.v. 10 pmol, mean ± SD, n = 5–6, read-out: Heart uptake
  tissue uptake at 1 h: 0.5 ± 0.23 %ID/g
[1]; 1 h p.i., i.v. 10 pmol, mean ± SD, n = 5–6, read-out: Kidney uptake
  tissue uptake at 1 h: 4.32 ± 0.97 %ID/g
[1]; 1 h p.i., i.v. 10 pmol, mean ± SD, n = 5–6, read-out: Liver uptake
  tissue uptake at 1 h: 2.75 ± 0.74 %ID/g
[1]; 1 h p.i., i.v. 10 pmol, mean ± SD, n = 5–6, read-out: Lung uptake
  tissue uptake at 1 h: 1.38 ± 0.83 %ID/g
[1]; 1 h p.i., i.v. 10 pmol, mean ± SD, n = 5–6, read-out: Muscle uptake
  tissue uptake at 1 h: 0.35 ± 0.24 %ID/g
[1]; 1 h p.i., i.v. 10 pmol, mean ± SD, n = 5–6, read-out: Spleen uptake
  tissue uptake at 1 h: 1.16 ± 0.17 %ID/g
[1]; Adrenal uptake
  tissue uptake at 1 h: 5.34 ± 1.85 %ID/g
[1]; Colon uptake
  tissue uptake at 1 h: 5.85 ± 1.29 %ID/g
[1]; Intestine uptake
  tissue uptake at 1 h: 3.71 ± 1.48 %ID/g
[1]; Pancreas uptake
  tissue uptake at 1 h: 17.1 ± 3.25 %ID/g
[1]; Stomach uptake
  tissue uptake at 1 h: 3.03 ± 0.88 %ID/g
physchem
  logD: -1.26 ± 0.16
[2]; 1–100 nM radiopeptide
  Kd: 21.3 ± 4.6 nM
[2]; maximum receptor occupancy
  Bmax: 0.91 ± 0.06 nM
other
  increase of hydrophilicity (logD) vs non-glycated reference: 0.7 log units
[3]; 1000-fold excess of natural bombesin
  cellular binding and uptake in the presence of blocking agent: < 0.5 % AD/10^6 cells
[3]; acidic glycine wash fraction, n = 2–3 in triplicate
  membrane bound fraction: less than 5 % AD/10^6 cells
